In data set [1] the test system is H9c2 cardiomyocytes. The data set is described as follows: sPDNF stimulation of H9c2 cardiomyocytes, transcripts by qPCR. The class given is cell-based, rat. As for the experimental part:
FIG. 8A is a graph showing dose-response of MCP-1 secretion to sPDNF stimulation. H9c2 cardiomyocytes were plated in 6-well plates, grown in low serum (0.1% FCS) overnight, and stimulated with the indicated doses of sPDNF for 3 hr. Secretion of MCP-1, MIP-2α and IL-6 was determined by ELISA. FIG. 8B is a graph showing dose-response of MCP-transcript expression. H9c2 cardiomyocytes were plated in 6-well plates, grown in low serum (0.1%) overnight, and stimulated with the indicated doses of sPDNF for 3 hr, and MCP-transcript quantified by qPCR. Chemokine gene expression was normalized to HPRT and fold change calculated relative to vehicle-treated cells. Points represent mean±SD fold change expression of triplicate samples; *P<0.05, **P<0.01, and ***P<0.005. FIG. 8C is a graph showing time course of MCP-1 and FKN transcripts expression. H9c2 cardiomyocytes were plated in 6-well plates (triplicate), grown in low serum (0.1%) overnight, stimulated with sPDNF (1 μg/ml) for the indicated times, and MCP-1 and FKN (data not shown) transcripts quantified by qPCR. Three experiments gave similar results.
Primary cardiomyocytes and cardiac fibroblasts, and H9c2 cardiomyocytes were seeded at 6-8×10^4 cells per well in DMEM/10% FCS and allowed to adhere overnight, serum starved (DMEM/0.1% FCS overnight), and treated with sPDNF (0.5 ng/ml-8 μg/ml, 0-16 h). Cell supernatants were collected and stored at −80° C. and cell monolayers rinsed with PBS and collected in Trizol for qPCR analysis.
(§1) RNA was isolated from Trizol lysates of cell monolayers or liquid nitrogen snap frozen tissue samples dissociated by a Tissue-Tearor mechanical homogenizer (Biospec Products, Inc.). cDNA was synthesized using the Quantitect Reverse Transcription kit (Qiagen) according to manufacturer's instructions. Chemokine and chemokine receptor transcripts were amplified using specific primers and normalized to HPRT using SYBR Green (Qiagen), and, if needed, expressed relative to control-unstimulated cells. The following primers were used: […]
On the technique in general: In qPCR the cycle at which signal appears reflects the starting amount.

Data set [2] relates to MCP-1 and FKN receptors CCR2 and CX3CR1. The data set is described as follows: IV sPDNF into naïve mice, chemokine receptor transcripts by qPCR. The class given is in vivo. As for the experimental part:
For the results depicted in FIGS. 12A and 12B, mice (3/group) were injected with various single doses of IV sPDNF, and sacrificed 3 hr post-injection. FIG. 12A is a graph showing the mRNA expression of MCP-1 receptor CCR2, as quantified by qPCR in the heart and liver. FIG. 12B is a graph showing the mRNA expression of FKN receptor CX3CR1, as quantified by qPCR in the heart and liver. […] For the results depicted in FIGS. 12C and 12D, mice (3/group) were injected with vehicle (Veh) or multiple doses of IV sPDNF (25 μg per injection) at 0, 3 and 24 hr, and sacrificed 24 hr after the last injection. FIG. 12C is a graph showing mRNA expression of CCR2, as quantified by qPCR in the liver, colon and heart (ventricles and atria). FIG. 12D is a graph showing mRNA expression of CX3CR1, as quantified by qPCR in the liver, colon and heart (ventricles and atria). Notice a statistically significant upregulation of MCP-1 and FKN receptors in the heart and liver 48-h after the start of three doses of IV sPDNF spaced within a 24 h span; *P<0.05, and ** P<0.01
One of the functions of MCP-1 and FKN is to attract cells expressing their receptors (CCR2 and CX3CR1, respectively) to tissue sites. […] Thus, sPDNF-induced MCP-1 and FKN promoted migration of cells bearing CCR2 and CX3CR1 receptors.
as §1
sPDNF was diluted in sterile endotoxin-free PBS (200 μl) and injected via the tail vein into 6-8 week old female C57BL/6 mice. Mice receiving single IV injections of 150 μg sPDNF per mouse were sacrificed at 3, 6, 9, and 12 hr post-injection, or various doses of sPDNF (100 ng-150 μg) and sacrificed 3 hr post-injection. Mice receiving multiple injections of sPDNF or PBS vehicle control (0, 3, and 24 hr, 100 μg per injection) were sacrificed 24 hr after the last injection (i.e., 48 hr after the first injection). Mice were perfused with PBS and organs harvested as described above.

Data set [3] in a line: Limulus amebocyte assay. The conditions noted are these: sPDNF preparations. Here is the method:
To ensure that the response observed in wild type mice was not due to TLR activation, MCP-1 and FKN response to IV sPDNF was assessed in TLR-deficient MyD88^−/− mice (23).
PDNF was cloned from the T cruzi Silvio X-10/4 strain (GenBank accession number AJ002174). PDNF and a N-terminal short-form of PDNF (sPDNF) that contains Trk-binding sites, were expressed in BL21 (DE3) bacteria, and purified by Ni-affinity chromatography, as described previously (4, 12, 18, 60). Buffers were prepared in sterile endotoxin-free water, and sPDNF preparations screened with the Limulus amebocyte assay have undetectable levels of endotoxin. sPDNF migrates as a 68 kDa protein on a SDS-PAGE gel. PDNF protein was buffer exchanged into PBS (0.01 M phosphate buffered saline, pH 7.2), filter-sterilized (0.22 μm), and kept at 4° C. PDNF was quantified by scanning densitometry (Bio-Rad, GS-800) of SDS-PAGE gels stained with Coomassie brilliant blue.

Setting [4] is: H9c2, sPDNF 1 μg/ml, time course.
[5] abbreviates: IV at 0, 3 and 24 hr, measured 24 hr after the last injection.

B1: sPDNF: N-terminal short-form of T cruzi PDNF that contains Trk-binding sites, recombinant; amino acids 1-588 of SEQ ID NO: 2; JR-100 is the commercial name (protein, listed as Trypanosoma cruzi)
chain: MGKTVVVASRMFWLMFFVPLLLAICPSEPAYALAPGSSRVELFKRKNSTVPFEDKAGKVTERVVHSFRLPALVNVDGVMVAIADARYDTSNDNSLIDTVAKYSVDDGETWETQIAIKNSRVSSVSRVVDPTVIVKGNKLYVLVGSYYSSRSYWSSHGDARDWDILLAVGEVTKSTAGGKITASIKWGSPVSLKKFFPAEMEGMHTNQFLGGAGVAIVASNGNLVYPVQVTNKKKQVFSKIFYSEDDGKTWKFGKGRSDFGCSEPVALEWEGKLIINTRVDWKRRLVYESSDMEKPWVEAVGTVSRVWGPSPKSNQPGSQSSFTAVTIEGMRVMLFTHPLNFKGRWLRDRLNLWLTDNQRIYNVGQVSIGDENSAYSSVLYKDDKLYCLHEINTDEVYSLVFARLVGELRIIKSVLRSWKNWDSHLSSICTPADPAASSSESGCGPAVTTVGLVGFLSGNASQNVWEDAYRCVNASTANAERVRNGLKFAGVGGGALWPVSQQGQNQRYRFANHAFTLVASVTIHEAPRAASPLLGASLDSSGGKKLLGLSYDEKHQWQPIYGSTPVTPTGSWETGKRYHLVLTMANKI
With B1, in data set [1] (H9c2, 3 hr, dose-dependent), the “FKN mRNA” value is recorded as “increase” and the “MCP-1 mRNA” value is recorded as “increase”. Moreover, in data set [1] (setting [4]), the “time at which MCP-1 transcript dropped to levels similar to unstimulated cells” value is 8 h and the “time of maximal MCP-1 transcript increase after sPDNF stimulation” value is 3 h. In data set [2] (setting [5]), the “CCR2 in the liver and heart (ventricle and atrium)” value is “significant increase”; the “CX3CR1 in the liver and heart (ventricle and atrium)” value was “significant increase”. In addition, in data set [2] (single IV dose (150 μg)), the “CCR2 transcripts in cardiac and hepatic tissues” value was “did not increase”; the “CX3CR1 transcripts in cardiac and hepatic tissues” value is “did not increase”. The levels of endotoxin entry in data set [3] is listed as “did not have detectable levels”.

For the origin of these results see patent US9744220B2, “Compositions and methods for treating inflammatory diseases” (priority 2013, dated 2017).
